Like-named read-outs stand apart in the source and are kept apart here. Ends that are not written are not given here.

For experiment [1], the target named is T1, soluble HLA-A*2402 (human).
T1 construct: Member of the panel of 53 single-specificity sHLA
The experiment is described as follows: FP screen of 53 sHLA with FITC-peptide.

Experiment [2] has as its target T2, soluble HLA-B*1512 (human).
T2 construct: Member of the panel of 53 single-specificity sHLA
The experiment is described as follows: FP screen.

Experiment [3] addresses T3, soluble HLA-A*3002 (human).
T3 construct: Member of the panel of 53 single-specificity sHLA
The experiment is described as follows: FP screen.

Experiment [4] concerns the target T4, soluble HLA-B*1302 (human).
T4 construct: Member of the panel of 53 single-specificity sHLA
In words: FP screen.

In experiment [5] the target is T5, soluble HLA-A*4301 (sHLA-A*4301) (human).
T5 construct: Recombinant soluble class I with endogenous peptides, made as m1
In words: FP screen.

The target of experiment [6] is T6, soluble HLA-A*1102 (sHLA-A*1102) (human, UniProt P04439 25-308; P61769 21-119).
T6 construct: Recombinant soluble class I with endogenous peptides, made as m1
In words: FP screen.

Experiment [7] has as its target T7, soluble HLA-B*4002 (human).
T7 construct: Member of the panel of 53 single-specificity sHLA
In words: FP screen.

Experiment [8] addresses T8, soluble HLA-A*3601 (human).
T8 construct: Member of the panel of 53 single-specificity sHLA
The experiment is described as follows: FP screen.

Experiment [9] deals with T9, soluble HLA-A*0301 (human).
T9 construct: Member of the panel of 53 single-specificity sHLA
The experiment is described as follows: FP screen.

Experiment [10] addresses T10, soluble HLA-B*4402 (human).
T10 construct: Member of the panel of 53 single-specificity sHLA
The experiment is described as follows: FP screen.

Experiment [11] addresses soluble HLA-A*0201 (sHLA-A*0201) (human). In words: FP screen.
For experiment [12], the target named is T11, soluble HLA-A*2601 (human).
T11 construct: Member of the panel of 53 single-specificity sHLA
The experiment is described as follows: FP screen.

The target of experiment [13] is T12, soluble HLA-A*6801 (sHLA-A*6801) (human).
T12 construct: Recombinant soluble class I with endogenous peptides, made as m1
In words: FP screen.

In experiment [14] the target is T13, soluble HLA-A*0101 (human).
T13 construct: Member of the panel of 53 single-specificity sHLA
The experiment is described as follows: FP screen.

Experiment [15] concerns the target T14, soluble HLA-A*3402 (human).
T14 construct: Member of the panel of 53 single-specificity sHLA
The experiment is described as follows: FP screen.

Experiment [16] has as its target T15, soluble HLA-B*1801 (human).
T15 construct: Member of the panel of 53 single-specificity sHLA
The experiment is described as follows: FP screen.

In experiment [17] the target is T16, soluble HLA-B*2705 (sHLA-B*2705) (human).
T16 construct: Recombinant soluble class I with endogenous peptides, made as m1; negative control
In words: FP screen.

Experiment [18] has as its target T13, soluble HLA-A*0101. The experiment is described as follows: FP competition against 1.6 nM FITC-labeled P2(A*0101), 41.0 µg/ml sHLA A*0101T (C22).
Experiment [19] deals with T17, soluble HLA-A*2902 (human).
T17 construct: Member of the panel of 53 single-specificity sHLA
In words: FP competition against 1.5 nM FITC-labeled P2(A*0101), 49.9 µg/ml sHLA A*2902T (1224).

Experiment [20] addresses T18, soluble HLA-B*1501 (human).
T18 construct: Member of the panel of 53 single-specificity sHLA
The experiment is described as follows: FP screen of 53 sHLA with FITC-peptide.

The target in experiment [21] is T17, soluble HLA-A*2902. In words: FP screen of 53 sHLA with FITC-peptide.
The target in experiment [22] is T8, soluble HLA-A*3601. In words: FP screen of 53 sHLA with FITC-peptide.
Experiment [23] has as its target T11, soluble HLA-A*2601. The experiment is described as follows: FP screen of 53 sHLA with FITC-peptide.
For experiment [24], the target named is T13, soluble HLA-A*0101. In words: FP screen of 53 sHLA with FITC-peptide.
In experiment [25] the target is T14, soluble HLA-A*3402. The experiment is described as follows: FP screen of 53 sHLA with FITC-peptide.
In experiment [26] the target is T19, soluble HLA-B*4501 (human).
T19 construct: Member of the panel of 53 single-specificity sHLA
The experiment is described as follows: FP screen.

For experiment [27], the target named is T2, soluble HLA-B*1512. The experiment is described as follows: FP screen. The source holds these as a separate data set.
Experiment [28] concerns the target T3, soluble HLA-A*3002. In words: FP screen. The source holds these as a separate data set.
In experiment [29] the target is T4, soluble HLA-B*1302. In words: FP screen. The source holds these as a separate data set.
For experiment [30], the target named is T20, soluble HLA-B*4001 (human).
T20 construct: Member of the panel of 53 single-specificity sHLA
The experiment is described as follows: FP screen.

In experiment [31] the target is T21, soluble HLA-A*6601 (human).
T21 construct: Member of the panel of 53 single-specificity sHLA
In words: FP screen.

Experiment [32] addresses T22, soluble HLA-A*2301 (human).
T22 construct: Member of the panel of 53 single-specificity sHLA
In words: FP screen.

In experiment [33] the target is T7, soluble HLA-B*4002. The experiment is described as follows: FP screen. This is another data set of the same source.
Experiment [34] concerns the target T9, soluble HLA-A*0301. In words: FP screen. This is another data set of the same source.
Experiment [35] concerns the target T10, soluble HLA-B*4402. The experiment is described as follows: FP screen. This is another data set of the same source.
The target in experiment [36] is T1, soluble HLA-A*2402. The experiment is described as follows: FP screen.
The target of experiment [37] is soluble HLA-A*0201 (sHLA-A*0201) (human). The experiment is described as follows: FP screen. This is another data set of the same source.
Experiment [38] addresses T23, soluble HLA-A*6901 (sHLA-A*6901) (human).
T23 construct: Recombinant soluble class I with endogenous peptides, made as m1
The experiment is described as follows: FP screen.

Experiment [39] addresses T12, soluble HLA-A*6801 (sHLA-A*6801). In words: FP screen. The source holds these as a separate data set.
Experiment [40] has as its target T15, soluble HLA-B*1801. The experiment is described as follows: FP screen. This is another data set of the same source.
Experiment [41] addresses T16, soluble HLA-B*2705 (sHLA-B*2705). The experiment is described as follows: FP screen. This is another data set of the same source.
Experiment [42] deals with T9, soluble HLA-A*0301. The experiment is described as follows: FP competition against 1.8 nM FITC-labeled P1(A*0301), 42.1 µg/ml sHLA A*0301T (2798).
Experiment [43] has as its target B*0702T (human, UniProt P61769). In words: FP competition against 1.9 nM FITC-labeled P1(B*0702), 40 µg/ml sHLA B*0702T (955).

B1: KYPENKFLL, FITC-labeled A24-like peptide (peptide)
peptide: KYPENKFLL
modifications: also: FITC-labeled, position not given here
With B1, the binding result in experiment [1] is “binds”; in experiment [2], “no binding (tested: 100 ug/ml sHLA)”; in [3], “no binding (tested: 100 ug/ml sHLA)”; in experiment [4], “no binding (tested: 100 ug/ml sHLA)”; in experiment [5] it was “no binding (tested: 100 ug/ml sHLA)”; in experiment [6] it was “no binding (tested: 100 ug/ml sHLA)”. The binding result in experiment [7], in [8], in [9], in experiment [10], in experiment [11] and in [12] was “no binding (tested: 100 ug/ml sHLA)” throughout. For the same molecule, the binding result in experiment [13], in experiment [14], in experiment [15], in experiment [16] and in experiment [17] was “no binding (tested: 100 ug/ml sHLA)” in each case.

B2: C1(A*0101) (peptide)
peptide: ATDFKFAMY
Take B2: the IC50 in [18] was determined as 1.57 µM; in experiment [19], 8.63 µM.

B3: YTDGVPLKY, FITC-labeled A1-like peptide (peptide)
peptide: YTDGVPLKY
modifications: also: FITC-labeled, position not given here
Regarding B3, the binding result in [20], in [21], in experiment [22], in experiment [23], in experiment [24] and in experiment [25] was “binds” each time. In addition, the binding result in experiment [26], in [27], in [28], in experiment [29], in experiment [30] and in experiment [31] was “no binding (tested: 100 ug/ml sHLA)” in each case. Also, the binding result in experiment [32], in experiment [33], in experiment [34], in experiment [35], in [36] and in [37] was “no binding (tested: 100 ug/ml sHLA)” throughout. The binding result in experiment [38], in [39], in experiment [40] and in [41] was “no binding (tested: 100 ug/ml sHLA)” throughout.

B4: C2(A*0301) (peptide)
peptide: SLFRAVITK
In experiment [42], B4 came in with an IC50 of 0.518 µM. This lies in the sub-micromolar range.

B5: LVMAPRTVL (peptide)
peptide: LVMAPRTVL
In experiment [43], B5 returned an IC50 of 0.276 µM.

As usually defined, the IC50 is the point on the concentration scale where inhibition reaches its midpoint.

Source of the values: patent publication US20140093973A1 (BOARD OF REGENTS OF THE UNIVERSITY OF OKLAHOMA, published 2014).
